Target: T1, VLA-4 (integrin alpha4 beta1) on the human B cell line Ramos (human, UniProt P13612 34-1032; P05556 21-798)
T1 construct: whole, on cells; also called α4β1; VLA-4-expressing cells
Test: adhesion assay: inhibition of Ramos cell binding to immobilized rsVCAM1 (n = 6)
Method: Recombinant soluble VCAM1 was prepared and purified essentially as described by Lobb et al., 1991a. Soluble VCAM is diluted to 10 μg/ml in 0.05 M NaHCO₃, (15 mM NaHCO₃, 35 mM Na₂CO₃) pH 9.2. Then 50 μl/well is added into a Linbro Titertek polystyrene 96 well plate, flat bottom, Flow Labs catalog #76-231-05. The plate is incubated at 4° C. overnight.
For antibody blocking studies, 100 μl/well of murine HP1/2 MAb (anti-VLA-4) typically at 10 μg/ml in RPMI, 2% FBS are added to the rsVCAM1 coated plates and incubated for 30 minutes at room temperature prior to cell binding as described above. MAb HP1/2 (anti-VLA-4) or any recombinant humanized anti-VLA-4 antibody prepared as described herein must be preincubated with labelled cells for 30 minutes at room temperature prior to the cell binding. Concentrations of the antibodies preincubated will vary, but generally concentrations were in the range of about 1 μg/ml.
The potency of recombinant Stage 0, Stage 1, Stage 2 and Stage 3 antibodies having the VK1 (DQL) light chain that had been purified from stably transfected YB2/0 cell lines was measured in the adhesion assay, as shown in Table III.

T1 sequence (P13612 34-1032, chain 1 of 2): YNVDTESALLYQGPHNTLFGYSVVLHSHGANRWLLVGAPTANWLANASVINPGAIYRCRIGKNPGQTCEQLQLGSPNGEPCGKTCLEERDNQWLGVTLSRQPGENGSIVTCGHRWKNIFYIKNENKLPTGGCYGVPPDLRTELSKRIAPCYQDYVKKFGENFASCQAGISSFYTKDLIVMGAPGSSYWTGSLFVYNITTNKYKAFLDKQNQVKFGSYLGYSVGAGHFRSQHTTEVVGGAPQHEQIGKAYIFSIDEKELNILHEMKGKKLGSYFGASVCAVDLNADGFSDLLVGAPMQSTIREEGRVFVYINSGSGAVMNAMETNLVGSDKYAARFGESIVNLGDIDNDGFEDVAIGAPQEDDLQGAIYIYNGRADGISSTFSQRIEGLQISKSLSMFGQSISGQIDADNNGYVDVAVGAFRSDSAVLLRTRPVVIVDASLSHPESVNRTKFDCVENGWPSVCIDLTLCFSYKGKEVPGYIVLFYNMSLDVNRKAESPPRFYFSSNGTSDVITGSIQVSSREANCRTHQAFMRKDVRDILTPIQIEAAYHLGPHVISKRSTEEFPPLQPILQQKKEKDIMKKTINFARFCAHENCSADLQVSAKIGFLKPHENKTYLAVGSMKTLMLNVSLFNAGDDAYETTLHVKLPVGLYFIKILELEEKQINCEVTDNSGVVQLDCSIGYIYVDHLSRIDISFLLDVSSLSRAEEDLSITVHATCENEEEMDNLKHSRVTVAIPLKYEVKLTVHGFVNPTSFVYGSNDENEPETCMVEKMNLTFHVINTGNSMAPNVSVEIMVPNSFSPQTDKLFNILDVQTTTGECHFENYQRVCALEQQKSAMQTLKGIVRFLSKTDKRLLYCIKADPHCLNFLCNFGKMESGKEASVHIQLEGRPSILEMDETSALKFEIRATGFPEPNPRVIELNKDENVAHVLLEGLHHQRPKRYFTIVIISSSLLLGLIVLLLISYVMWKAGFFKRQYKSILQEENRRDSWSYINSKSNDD
T1 sequence (P05556 21-798, chain 2 of 2): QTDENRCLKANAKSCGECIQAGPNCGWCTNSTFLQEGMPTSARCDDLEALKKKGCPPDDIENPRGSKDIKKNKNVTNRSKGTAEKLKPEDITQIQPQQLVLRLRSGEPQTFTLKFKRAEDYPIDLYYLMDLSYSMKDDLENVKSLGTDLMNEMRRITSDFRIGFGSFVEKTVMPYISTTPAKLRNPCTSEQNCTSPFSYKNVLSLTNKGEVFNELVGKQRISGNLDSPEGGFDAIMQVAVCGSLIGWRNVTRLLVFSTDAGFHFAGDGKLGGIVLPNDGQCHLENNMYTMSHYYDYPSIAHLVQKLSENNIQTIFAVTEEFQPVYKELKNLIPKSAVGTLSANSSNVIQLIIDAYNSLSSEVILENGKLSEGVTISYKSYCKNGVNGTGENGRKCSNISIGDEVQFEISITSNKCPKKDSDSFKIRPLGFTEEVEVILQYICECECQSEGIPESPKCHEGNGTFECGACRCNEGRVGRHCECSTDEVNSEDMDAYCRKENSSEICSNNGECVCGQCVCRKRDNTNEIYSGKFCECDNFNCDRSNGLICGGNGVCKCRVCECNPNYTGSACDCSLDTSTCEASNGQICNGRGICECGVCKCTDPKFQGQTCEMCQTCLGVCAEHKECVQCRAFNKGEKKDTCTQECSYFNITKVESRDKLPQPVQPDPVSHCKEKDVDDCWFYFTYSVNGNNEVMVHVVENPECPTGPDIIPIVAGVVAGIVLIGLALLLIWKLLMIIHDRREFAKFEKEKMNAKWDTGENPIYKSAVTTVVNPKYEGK

B1: Stage 1 humanized anti-VLA-4 antibody with VK1 (DQL) light chain (antibody, V domains shown)
VH: QVQLQESGPGLVRPSQTLSLTCTVSGFNIKDTYMHWVRQPPGRGLEWIGRIDPASGDTKYDPKFQVRVTMLVDTSKNQFSLRLSSVTAADTAVYYCADGMWVSTGYALDFWGQGTTVTVSS
VL: DIQLTQSPSSLSASVGDRVTITCKASQSVTNDVAWYQQKPGKAPKLLIYYASNRYTGVPSRFSGSGSGTDFTFTISSLQPEDIATYYCQQDYSSPYTFGQGTKVEIKR
notes: Purified from YB2/0 cells; also called Stage 1 (Humanized heavy chain)
- IC50: 0.228 µg/mL

— US20030185819A1 (Biogen, published 2003)
